Residue numbers refer to the chain shown, from its start.

This passage reports Max. Activity (fold over background) results from patent US20220125947A1.

B1: VG9B88 (antibody, human IgG1, kappa, V domains shown)
VH: EVQLVESGGGLVKPGGSLRLSCAVSGFTFSSYTMNWVRQAPGKGLEWVSSISTSSSYIDYADSVKGRFTISRDNAKKSLYLQMNSLRAEDTAVYYCARDGDMVAPIKGSFDYWGQGTLVTVSS
VL: EIVLTQSPLSLPVTPGEPASISCRSSQSLLNSDDGNTYLDWYLQKPGQSPQLLIYTLSYRASGVPDRFSGSGSGTDFTLKISRVEAEDVGVYYCMQRIEFPITFGQGTRLEIKR
B2: VG9B430 (antibody, human IgG1, kappa, V domains shown)
VH: EVQLLESGGGLVKPGGSLRLSCSASGFTFSSYDMNWVRQAPGKGLEWVSSISSSSSYIYYADSVKGRFTISRDNAKNSLYLQMNSLRAEDTAVYHCARDVGVTTDYYYYGMDVWGQGTMVTVSS
VL: EIVLTQSPGTLSLSPGDRATLSCRASQSVASSYLAWYQQKPGQSPRLLIYGASSRATGIPDRFSGSGSGTDFTLTISRLEPEDFAVYYCQQYGSSPPYTFGQGTKLEIKR
B3: VG9B73 (antibody, human IgG1, kappa, V domains shown)
VH: EVQLVQSGGGLVKPGGSLRLSCAASGFTFSNYDMNWVRQAPGKGLEWVSSISSSSSYIYYADSVKGRFTISRDNARNSLFLQMSSLRAEDTAVYYCAREIGVTGTTYYQDYGMDVWGQGTTVTVSS
VL: B2 VL with L4M, D17E, V29F, A30S, S32N, S44A, V86L, Y98F, L106V
B4: VG9B143 (antibody, human IgG1, lambda, V domains shown)
VH: EVQLVESGGGLVQPGGSLRLSCAASGFTFSTYGMNWVRQAPGKGLEWISYISTSSYTIYYSDSVKGRFTVSRDNAKNSLYLQMNSLRDEDTAVYYCAREGDWWYFDLWGRGTTVTVSS
VL: QSALTQPASVSGSPGQSITISCTGTSSDVGGYNYVSWYQQHPGKAPKLMIYEVSNRPSGVSYRFSGSKSGNTASLTISGLQAEDEADYYCSSYTSSSTLVFGGGTKLTVLG
B5: VG9B58 (antibody, human IgG1, kappa, V domains shown)
VH: QVQLQESGPGLVKPSETLSLTCTVSGGSIKSSYWTWIRQPPGKGLEWIGYMFYLGSTNYNPSLKSRVTMSIDTSRNQFSLKLSSVTAADTAVYYCSRERPVLDAFDIWGQGTMVTVSS
VL: DIQMTQSPSAMSASVGDRVTITCRASQDITNYLAWFQQKPGKVPKRLIYAASSLQGGVPSRFSGSGSGTEFTLTISSLQPEDFSTYYCLQHDTYPYTFGQGTKVDIKR
B6: VG9B472 (antibody, human IgG1, kappa, V domains shown)
VH: QVQLVESGGGLVKPGGSLRLSCAASGFTFSHYDMNWVRQAPGKGLEWVSSISSSSSYIFYADSVKGRFTISRDNAKNSLLLQMNSLRAEDTAVYHCARDRGVGDTSDYYSFGLDVWGQGTTVTVSS
VL: EIVLTQSPSSLSASVGDRVTITCRASQGIATYLAWYQQKPGKVPNLLIYAASTLQSGVPSRFSGSGSGTDFTLTISSLQPEDVATYYCQKYNSAPPWTFGQGTKVEIKR
B7: VG9B384 (antibody, human IgG1, lambda, V domains shown)
VH: QVQLQESGPALVKPTQTLTLTCTFSGFSLSSSGMCVSWIRQPPGKALEWLTLIDWFDDKYYSTSLKTRLTISKDTSKNQVVLTMTNMDPVDTATYYCARIRGTGAYYYGLDVWGQGTMVTVSS
VL: SYELMQPPSVSVSPGQTASITCSGNELGDKYASWYQQQPGQSPVLVIYQDNKRPSGIPERFSGSNSGNTATLTISGTQAMDEADYYCQAWDSSKVVFGGGTKLTVLG
B8: VG9B98 (antibody, human IgG1, kappa, V domains shown)
VH: EVQLVQSGGDLVKSGGSLRLSCAASGFTFSSYSMYWVRQAPGKGLEWVSSIGSSSTYIFYADSVKGRFTISRDNAMTSLYLQMNRLGAEDSAVYYCARDGELGPFEYWGQGTLVTVSS
VL: EIVLTQSPGTLSLSPGERATLSCRASQSVSTSYLAWFQQKPGQAPRLLIFGTSSRATGIPDRFSGSGSGTDFTLTISRLEPEDFAVYHCLQYGRSPLTFGGGTKVDIKR
B9: VG9B68 (antibody, human IgG1, kappa, V domains shown)
VH: EVQLVESGAEVKKPGSSVKVSCKASGGTFSTYAISWVRQAPGQGLEWMGGIIPIFGTATYAQRFQDRVMITADKSTTTAYMELSSLRSEDTAVFYCARGVGWGSDYYYGLDVWGQGTMVTVSS
VL: EIVMTQSPLSSPVTLGQPASISCRSSQSLVHSDGNTYLSWLQQRPGQSPRLLIYKISNRFSGVPDRFSGSGAGTDFTLRITRVEPEDVGVYYCIQATHHPLTFGGGTRLEIKR
B10: VG9B157 (antibody, human IgG1, lambda, V domains shown)
VH: EVQLLESGGGLVKPGASLKLSCAASGFTFSNHGMSWVRQTSDKRLEWVASITRGGDTTYYPDNVKGRFTISRENAKNTLYLQMSSLKSDDTALYYCTRGPLTVGYAMDYWGQGTTVTVSS
VL: SSELTQDPAVSVALGQTVRITCQGDSLRSYYATWYQQKPGQAPILVIYGENNRPSGIPDRFSGSRSGNTASLTITGAQAEDEADYYCNSRDTGDHHLVFGGGTKLTVLG
B11: VG9B195 (antibody, human IgG1, lambda, V domains shown)
VH: EVQLVESGGGLVKPGGSLRLSCAASGFTFSPYTMNWVRQAPGKGLEWVSSISSSSSYMYYADSVKGRFTISRDNAKNSLYLQMNSLRAEDTAVYYCARDGDLVGPTYYFDYWGQGTLVTVSS
VL: B7 VL with N25D, E26K, S33C, Q38K, D50H, N68K, S93T, K94T

Chain of Vg5/Vd2 T cell receptor on SKW3 cells (AG000003285; CLI000001325 (C3820A)) (A0JD36 20-115, stated change not applied): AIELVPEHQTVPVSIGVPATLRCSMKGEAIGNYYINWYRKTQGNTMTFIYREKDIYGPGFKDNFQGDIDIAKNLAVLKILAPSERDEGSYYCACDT

The target in the first test is Vg9/Vd2 T cell receptor on SKW3_4 cells (UniProt Q99603). The test can be described thus: flow cytometry, dose-response binding at 37 C on SKW3_4 cells expressing Vg9/Vd2.
Chain of Vg9/Vd2 T cell receptor on SKW3_4 cells (Q99603 21-122, chain 1 of 2): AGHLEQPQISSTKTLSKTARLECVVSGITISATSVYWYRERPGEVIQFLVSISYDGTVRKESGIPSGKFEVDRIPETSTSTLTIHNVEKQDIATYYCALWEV
Chain of Vg9/Vd2 T cell receptor on SKW3_4 cells (A0JD36 20-115, chain 2 of 2, further chain): as the sequence (A0JD36 20-115, stated change not applied) above
Consider B1, for which the Max. Activity (fold over background) amounted to 154.

Take B2: the Max. Activity (fold over background) came out at 143.

In the case of B3, the Max. Activity (fold over background) amounted to 118.

Consider B4, for which the Max. Activity (fold over background) stood at 97.3.

For B5, the Max. Activity (fold over background) stood at 160.

Turning to B6, the Max. Activity (fold over background) is 171.

B7: the Max. Activity (fold over background) amounted to 121.

On to B8, for which the Max. Activity (fold over background) came out at 154.

The target of a further test is Vg9/Vd1 T cell receptor on SKW3 cells (UniProt Q99603). The test can be described thus: flow cytometry, dose-response binding at 37 C on SKW3 cells expressing Vg9/Vd1.
Chain of Vg9/Vd1 T cell receptor on SKW3 cells (Q99603 21-122): as the sequence (Q99603 21-122, chain 1 of 2) above
Take B1: the Max. Activity (fold over background) is 346.

For the molecule B2, the Max. Activity (fold over background) was 325.

In the case of B3, the Max. Activity (fold over background) worked out at 317.

With B4, the Max. Activity (fold over background) stood at 241.

Turning to B5, the Max. Activity (fold over background) is 350.

Take B6: the Max. Activity (fold over background) amounted to 328.

On to B7, for which the Max. Activity (fold over background) was determined as 290.

Take B8: the Max. Activity (fold over background) was 344.

The target of another test is Vg5/Vd2 T cell receptor on SKW3 cells (UniProt A0JD36). The test can be described thus: flow cytometry, dose-response binding at 37 C on SKW3 cells expressing Vg5/Vd2. (Flow cytometry measures light scatter and fluorescence of single cells or particles in a stream.)
Chain of Vg5/Vd2 T cell receptor on SKW3 cells (A0JD36 20-115): as the sequence (A0JD36 20-115, stated change not applied) above
B1: the Max. Activity (fold over background) turned out to be 18.8.

As for B2, the Max. Activity (fold over background) turned out to be 1.49.

With B3, the Max. Activity (fold over background) came to 1.79.

As to B4, the Max. Activity (fold over background) worked out at 1.07.

Take B5: the Max. Activity (fold over background) was 1.49.

As to B6, the Max. Activity (fold over background) amounted to 2.22.

For B7, the Max. Activity (fold over background) is 18.7.

On to B8, for which the Max. Activity (fold over background) came out at 2.47.

The next test deals with Vg9/Vd1 T cell receptor on SKW3 cells (UniProt Q99603). In words: flow cytometry, DRC binding 37 C, SKW3 cells expressing Vg9/Vd1.
As for B9, the Max. Activity (fold over background) is 2.08.

For the molecule B10, the Max. Activity (fold over background) was 0.96.

For another test, the target named is Vg9/Vd1 T cell receptor on SKW3 cells (AG000003287; CLI000001326 (C3821A)) (UniProt Q99603). In words: flow cytometry, DRC binding at 37°C on SKW3 cells expressing Vg9/Vd1.
Chain of Vg9/Vd1 T cell receptor on SKW3 cells (AG000003287; CLI000001326 (C3821A)) (Q99603 21-122, stated change not applied): as the sequence (Q99603 21-122, chain 1 of 2) above
In the case of B11, the Max. Activity (fold over background) was 300.

A further test concerns the target Vg9/Vd2 T cell receptor on SKW3_4 cells (UniProt Q99603). The test can be described thus: flow cytometry, DRC binding 37 C, SKW3_4 cells expressing Vg9/Vd2.
For B9, the Max. Activity (fold over background) was 124.

B10: the Max. Activity (fold over background) turned out to be 11.

A further test addresses Vg5/Vd2 T cell receptor on SKW3 cells (AG000003285; CLI000001325 (C3820A)) (UniProt A0JD36). The test can be described thus: flow cytometry, DRC binding at 37°C on SKW3 cells expressing Vg5/Vd2.
For B11, the Max. Activity (fold over background) came to 10.3.

The next test has as its target Vg5/Vd2 T cell receptor on SKW3 cells (UniProt A0JD36). In words: flow cytometry, DRC binding 37 C, SKW3 cells expressing Vg5/Vd2.
Take B9: the Max. Activity (fold over background) was found to be 207.

As for B10, the Max. Activity (fold over background) amounted to 11.7.

The target in a further test is Vg9/Vd2 T cell receptor on SKW3_4 cells (AG000003284; CLI000001324 (C3819A)) (UniProt Q99603). In words: flow cytometry, DRC binding at 37°C on SKW3_4 cells expressing Vg9/Vd2.
Chain of Vg9/Vd2 T cell receptor on SKW3_4 cells (AG000003284; CLI000001324 (C3819A)) (Q99603 21-122, chain 1 of 2): as above
Chain of Vg9/Vd2 T cell receptor on SKW3_4 cells (AG000003284; CLI000001324 (C3819A)) (A0JD36 20-115, chain 2 of 2, further chain): as the sequence (A0JD36 20-115, stated change not applied) above
B11: the Max. Activity (fold over background) is 119.
